# Data from PMC4824110.
# T1: Rrp41 D182A (catalytically inactive);Rrp42 (Sulfolobus solfataricus;Sulfolobus …, UniProt Q9UXC2;Q9UXC0 ;, D182A|)
# T1 sequence 1: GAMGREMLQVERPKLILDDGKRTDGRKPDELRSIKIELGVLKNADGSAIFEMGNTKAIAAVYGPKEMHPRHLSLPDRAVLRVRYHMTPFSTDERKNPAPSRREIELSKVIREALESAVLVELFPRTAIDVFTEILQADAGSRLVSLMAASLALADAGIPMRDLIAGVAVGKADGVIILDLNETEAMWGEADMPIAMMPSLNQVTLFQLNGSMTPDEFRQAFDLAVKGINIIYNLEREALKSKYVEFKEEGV
# T1 sequence 2: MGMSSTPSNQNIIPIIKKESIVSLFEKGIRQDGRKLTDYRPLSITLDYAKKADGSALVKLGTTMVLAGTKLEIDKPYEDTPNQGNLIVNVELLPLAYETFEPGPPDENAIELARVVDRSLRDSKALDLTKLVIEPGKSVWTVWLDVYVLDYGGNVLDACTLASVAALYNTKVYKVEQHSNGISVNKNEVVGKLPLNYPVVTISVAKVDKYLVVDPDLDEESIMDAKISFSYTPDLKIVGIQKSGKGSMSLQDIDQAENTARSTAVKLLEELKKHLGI
# Target: T1, Rrp41 D182A (catalytically …)
# Test: fluorescence anisotropy
binder,measurement,value
"fluorescent 32A (FA RNA) (structured_RNA, 4-thiouridine at position 43) RNA: GCCCCCCCCGAAAGGGGGGGGAAAAAAAAAAAAAAAAAAAAAUAAAAAAAAAAAGCU",Kd,11.7 ± 0.9 nM
